Values quoted from earlier work, collected in article PMC3185792.
Like-named read-outs stand apart in the source and are kept apart here.

Tests used:
ICAM (Homo sapiens) [1] = target: ICAM (Homo sapiens) (UniProt P05362)
ICAM (Homo sapiens) [2] = target: ICAM (Homo sapiens) (UniProt P05362); remark: listed apart in the source

ICAM (Homo sapiens), sequence (P05362 28-480): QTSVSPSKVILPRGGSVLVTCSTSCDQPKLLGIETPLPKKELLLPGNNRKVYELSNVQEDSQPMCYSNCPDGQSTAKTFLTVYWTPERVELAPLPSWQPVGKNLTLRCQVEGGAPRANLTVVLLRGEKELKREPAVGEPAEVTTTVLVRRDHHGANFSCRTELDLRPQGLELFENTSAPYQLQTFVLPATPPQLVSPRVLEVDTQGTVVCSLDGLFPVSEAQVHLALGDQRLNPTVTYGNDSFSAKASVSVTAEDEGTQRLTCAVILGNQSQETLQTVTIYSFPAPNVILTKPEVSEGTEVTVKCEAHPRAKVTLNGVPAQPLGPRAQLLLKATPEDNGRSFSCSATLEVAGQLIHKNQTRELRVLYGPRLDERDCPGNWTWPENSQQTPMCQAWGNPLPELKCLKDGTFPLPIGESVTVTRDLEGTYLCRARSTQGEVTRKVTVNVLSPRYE
LFA-1 integrin (open conformation), sequence (P20701 26-1090): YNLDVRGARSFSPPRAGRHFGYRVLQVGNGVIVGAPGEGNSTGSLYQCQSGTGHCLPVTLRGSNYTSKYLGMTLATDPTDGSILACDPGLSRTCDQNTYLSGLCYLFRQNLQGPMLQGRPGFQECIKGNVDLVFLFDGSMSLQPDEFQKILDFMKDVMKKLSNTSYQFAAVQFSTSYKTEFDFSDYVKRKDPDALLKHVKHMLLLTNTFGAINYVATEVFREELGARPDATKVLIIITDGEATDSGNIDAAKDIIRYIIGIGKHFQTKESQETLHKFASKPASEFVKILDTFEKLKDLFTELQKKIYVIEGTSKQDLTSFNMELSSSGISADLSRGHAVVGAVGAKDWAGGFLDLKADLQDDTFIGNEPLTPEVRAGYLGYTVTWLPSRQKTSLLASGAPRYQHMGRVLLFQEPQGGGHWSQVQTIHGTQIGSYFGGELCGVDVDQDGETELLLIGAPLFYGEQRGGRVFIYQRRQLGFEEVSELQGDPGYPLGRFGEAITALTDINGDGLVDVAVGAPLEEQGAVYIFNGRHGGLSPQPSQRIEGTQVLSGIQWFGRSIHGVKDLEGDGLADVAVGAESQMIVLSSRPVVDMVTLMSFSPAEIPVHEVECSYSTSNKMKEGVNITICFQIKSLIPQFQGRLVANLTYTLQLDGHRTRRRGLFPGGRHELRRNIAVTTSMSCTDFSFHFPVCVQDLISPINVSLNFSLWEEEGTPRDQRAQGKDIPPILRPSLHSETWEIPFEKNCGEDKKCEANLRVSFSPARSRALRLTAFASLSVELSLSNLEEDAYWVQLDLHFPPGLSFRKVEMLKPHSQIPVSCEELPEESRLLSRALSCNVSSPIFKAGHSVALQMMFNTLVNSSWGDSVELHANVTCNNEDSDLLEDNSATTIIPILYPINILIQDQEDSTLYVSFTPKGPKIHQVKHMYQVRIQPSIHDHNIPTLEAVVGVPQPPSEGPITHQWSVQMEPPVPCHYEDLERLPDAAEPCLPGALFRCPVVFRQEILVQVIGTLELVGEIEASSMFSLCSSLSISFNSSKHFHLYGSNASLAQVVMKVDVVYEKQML
LFA-1 integrin (open conformation), sequence (P05107 23-700, further chain): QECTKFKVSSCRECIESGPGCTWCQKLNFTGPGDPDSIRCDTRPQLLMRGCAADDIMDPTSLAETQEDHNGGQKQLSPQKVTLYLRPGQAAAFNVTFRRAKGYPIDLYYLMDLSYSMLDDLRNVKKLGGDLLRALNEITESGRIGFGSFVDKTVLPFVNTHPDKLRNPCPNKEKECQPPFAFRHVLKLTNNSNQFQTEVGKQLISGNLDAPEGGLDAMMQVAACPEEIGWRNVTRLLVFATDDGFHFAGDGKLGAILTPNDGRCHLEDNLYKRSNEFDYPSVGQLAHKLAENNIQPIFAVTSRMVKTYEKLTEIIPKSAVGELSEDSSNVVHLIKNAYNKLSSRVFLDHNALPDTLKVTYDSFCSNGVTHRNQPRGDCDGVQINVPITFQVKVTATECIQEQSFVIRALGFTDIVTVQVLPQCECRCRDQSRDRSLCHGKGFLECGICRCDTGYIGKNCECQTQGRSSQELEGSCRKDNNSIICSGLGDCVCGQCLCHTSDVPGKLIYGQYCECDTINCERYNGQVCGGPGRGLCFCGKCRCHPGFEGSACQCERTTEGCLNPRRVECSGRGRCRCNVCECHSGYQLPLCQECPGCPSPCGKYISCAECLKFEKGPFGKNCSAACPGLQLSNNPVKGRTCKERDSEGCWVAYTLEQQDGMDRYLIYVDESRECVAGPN
LFA-1 integrin (closed conformation), sequence (P20701 26-1090): as the sequence (P20701 26-1090) above
LFA-1 integrin (closed conformation), sequence (P05107 23-700, further chain): as the sequence (P05107 23-700, further chain) above

| Substance | Kd (ICAM (Homo sapiens) [1]) [µM] | Kd (ICAM (Homo sapiens) [2]) [µM] |
| --- | --- | --- |
| LFA-1 integrin (open conformation) (from UniProt P20701) | 0.4 | – |
| LFA-1 integrin (closed conformation) (from UniProt P20701) | – | 100 |
